Where two headings read alike, the source gives them in different places.

The record followed here is paper doi:10.64898/2025.12.30.697132.

Test [1] concerns the target XCL1 R23A,R43A (human) (UniProt P47992). Nature of the test: 19F NMR.
Test [2] shares this target. As to the kind of experiment: 19F NMR. This is another data set of the same source.

Regarding “XCL1 R23A,R43A (from UniProt P47992 22-93) (domain or fragment)”, the percent of the protein in the dimer fold in the test with XCL1 R23A,R43A (human) [1] was determined as 20%; with XCL1 R23A,R43A (human) [2], 26%.
